Laboratory results: PMC3811445
pKd: −log10 of the molar value.

Target: E. coli EF-G (Δ529SNP531) (E. coli) (UniProt P0A6M8)
Assay: ITC; performed as described previously (ref 11); conditions not given here

## FusB (natural protein)
  pKd: 5.24
